Assay results published in the supplement of paper PMC12042874.
± gives the uncertainty stated by the source.

Experiment: amyloid nucleation score (Sup35N fusion, yeast selection) (log enrichment); library NNK2; higher = more nucleation; inactive = no reads after selection
How it was run: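 Peptides of 20 random codons fused to Sup35N were expressed in psi-negative yeast, induced 24 hours with 100 μM copper sulfate, then grown 7 days at 30°C on medium lacking adenine and uracil. Input and output plasmid inserts were Illumina-sequenced. Nucleation score is the DiMSum log enrichment of output over input reads, centred on the mode score of non-aggregating sequences, excluding sequences with under 100 input reads. Random libraries had three technical output replicates.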

Substance	amyloid nucleation score
NERFFKILCWLFRRNSFTIE	-2.24 ± 1
NEVDG	2.28 ± 0.1
NEVVFRVYK	3.22 ± 0.068
NEWAN	-1.31 ± 0.62
NFAVLYYIFVHIWLQCSNSE	-0.969 ± 0.41
NFFPCACNNGAPIKEDFTCR	2.84 ± 0.17
NFIFDFVV	-0.03 ± 0.21
NFLADCLDGSANAIWVHVAS	0.57 ± 0.23
NFMCVSYQAAANSILRVPQS	1.28 ± 0.11
NFMSYIDKRWYQWLVSDRIS	5.413 ± 0.047
NFNCYFS	4.888 ± 0.037
NFNMYGVFCVY	inactive
NFPRRSRVLKYCITLSSNHS	-0.158 ± 0.5
NFSFRLYLLLETSIMYIGKT	-1.3 ± 0.38
NFSVNCLYNWARYACFLKGM	1.77 ± 0.12
NFVILLCKQN	5.2 ± 0.053
NFYFLIRLKAFSCLRIENWF	2.28 ± 0.061
NGARKCFIDAHWESAVANPE	3.2 ± 0.099
NGFMDYQLPLAARVKSSWHL	2.97 ± 0.076
NGLSRLEVTNH	0.052 ± 0.49
NGNRSHLELRCGWMSWCDRA	-0.318 ± 0.55
NGNVVADWI	0.809 ± 0.27
NGSESAYGNSLWLCLLEAAI	inactive
NGVGLSVTGKCCKERSIFPP	-0.406 ± 0.5

Substance	amyloid nucleation score
NHMGIVRVVLMFGSYITLI	-0.174 ± 0.45
NHSMRPNRTVSGMLTSIYYR	-0.533 ± 0.55
NHSTVYLLMEISTGLVISGN	1.99 ± 0.16
NICSTGPLFWNFLFVV	1.83 ± 0.15
NIIFLGVGSVFKNWRTTILS	4.02 ± 0.049
NILMY	-0.46 ± 1
NIQWLLQVDEDFKF	1.58 ± 0.16
NISFADSCMNFIRYY	2.4 ± 0.12
NISFGSYILLRFLMRVE	0.58 ± 0.6
NITDDRMSSWIRFVILVSTV	-0.074 ± 0.56
NITLRSQGIVRGQTFICLFW	-0.354 ± 0.56
NKLPDSFRSALSFY	inactive
NKTTFSICDAYDGYREWTDN	-1.17 ± 0.45
NLALFCLVLMMEHQRFPCKA	4.49 ± 0.072
NLCGCAMVCWVPF	-0.217 ± 0.54
NLGNDGHSELRHYSNL	inactive
NLGRAQTSQ	0.192 ± 0.65
NLGSHTVEFSVMS	0.152 ± 0.77
NLIESWTVYCIGLGG	inactive
NLKKAQFRGMYVAYP	1.55 ± 0.47
NLLLFWSSHLSNECGSNSLG	4.66 ± 0.1
NLLLFYPAISVSCVNYTMRV	7.127 ± 0.052
NLLNKTWFVSILIKHTCMYS	0.659 ± 0.56
NLMCTACILDQWRHCKLVWN	4.15 ± 0.091

Substance	amyloid nucleation score
NLMWTLNLF	8.253 ± 0.058
NLNDLVVLELYSRFLLNWFE	-0.282 ± 0.46
NLQLVGVMNPDPCESWN	0.222 ± 0.31
NLRPAFHDMDKQCGG	0.045 ± 0.63
NLRWPIFNSWSSG	-0.553 ± 0.27
NLSDLLFLQSTSEGLSLFSI	-0.621 ± 0.64
NLWRLISNLIDVMHPMYSTE	-0.089 ± 1.1
NLYTA	0.49 ± 0.29
NMCQPMCVIVDWIIFISCVG	2.49 ± 0.063
NMDSGLVMVVLVCDDYMTTT	0.119 ± 0.61
NMEQFTRSIKSIGKRFTVTV	-0.471 ± 0.76
NMTHEA	-0.219 ± 0.63
NNELDRISRTVCLWWVG	-0.239 ± 0.65
NNHGLRTYIGPYISWLIYFS	2.53 ± 0.17
NNNKI	inactive
NNRQK	0.63 ± 0.43
NNRWFRRGLGLSLDWTDCLS	-0.492 ± 1.1
NNRWVRKVSDYRVSC	0.243 ± 0.64
NNSPVSPDGCLLGSSVQYWY	-0.375 ± 1.1
NNSQEFSSYTWMNYLLIVKW	-1.02 ± 1
NNSWQINIYNGVTRLIRVRA	4.7 ± 0.039
NNSYTGPVSCNHVAGCGTGH	-0.387 ± 1.1
NNYATCNVHCMFMMI	10.18 ± 0.05
